Results published in US20250381289A1 (Genmab, published 2025).

Experiments:
Human EGFR [1] = molecular target: T1, Human EGFR (human, UniProt P00533); assay: ELISA, coated human EGFR, anti-human Fc-HRP
T1 construct: recombinant protein; also called human EGFR recombinant protein

[2] = molecular target: T2, EGFR on EGFR and cMET co-expressed tumor cell lines (UniProt P00533 25-1210, limits assumed); assay: flow cytometry, EBC-1 cells (co-express EGFR and cMET; both arms contribute)
T2 construct: whole, on cells

[3] = molecular target: T3, cMET on EGFR and cMET co-expressed tumor cell lines (UniProt P08581 25-1390, limits assumed); assay: as above
T3 construct: whole, on cells
Target sequence in this assay (P08581 25-1390 limits assumed): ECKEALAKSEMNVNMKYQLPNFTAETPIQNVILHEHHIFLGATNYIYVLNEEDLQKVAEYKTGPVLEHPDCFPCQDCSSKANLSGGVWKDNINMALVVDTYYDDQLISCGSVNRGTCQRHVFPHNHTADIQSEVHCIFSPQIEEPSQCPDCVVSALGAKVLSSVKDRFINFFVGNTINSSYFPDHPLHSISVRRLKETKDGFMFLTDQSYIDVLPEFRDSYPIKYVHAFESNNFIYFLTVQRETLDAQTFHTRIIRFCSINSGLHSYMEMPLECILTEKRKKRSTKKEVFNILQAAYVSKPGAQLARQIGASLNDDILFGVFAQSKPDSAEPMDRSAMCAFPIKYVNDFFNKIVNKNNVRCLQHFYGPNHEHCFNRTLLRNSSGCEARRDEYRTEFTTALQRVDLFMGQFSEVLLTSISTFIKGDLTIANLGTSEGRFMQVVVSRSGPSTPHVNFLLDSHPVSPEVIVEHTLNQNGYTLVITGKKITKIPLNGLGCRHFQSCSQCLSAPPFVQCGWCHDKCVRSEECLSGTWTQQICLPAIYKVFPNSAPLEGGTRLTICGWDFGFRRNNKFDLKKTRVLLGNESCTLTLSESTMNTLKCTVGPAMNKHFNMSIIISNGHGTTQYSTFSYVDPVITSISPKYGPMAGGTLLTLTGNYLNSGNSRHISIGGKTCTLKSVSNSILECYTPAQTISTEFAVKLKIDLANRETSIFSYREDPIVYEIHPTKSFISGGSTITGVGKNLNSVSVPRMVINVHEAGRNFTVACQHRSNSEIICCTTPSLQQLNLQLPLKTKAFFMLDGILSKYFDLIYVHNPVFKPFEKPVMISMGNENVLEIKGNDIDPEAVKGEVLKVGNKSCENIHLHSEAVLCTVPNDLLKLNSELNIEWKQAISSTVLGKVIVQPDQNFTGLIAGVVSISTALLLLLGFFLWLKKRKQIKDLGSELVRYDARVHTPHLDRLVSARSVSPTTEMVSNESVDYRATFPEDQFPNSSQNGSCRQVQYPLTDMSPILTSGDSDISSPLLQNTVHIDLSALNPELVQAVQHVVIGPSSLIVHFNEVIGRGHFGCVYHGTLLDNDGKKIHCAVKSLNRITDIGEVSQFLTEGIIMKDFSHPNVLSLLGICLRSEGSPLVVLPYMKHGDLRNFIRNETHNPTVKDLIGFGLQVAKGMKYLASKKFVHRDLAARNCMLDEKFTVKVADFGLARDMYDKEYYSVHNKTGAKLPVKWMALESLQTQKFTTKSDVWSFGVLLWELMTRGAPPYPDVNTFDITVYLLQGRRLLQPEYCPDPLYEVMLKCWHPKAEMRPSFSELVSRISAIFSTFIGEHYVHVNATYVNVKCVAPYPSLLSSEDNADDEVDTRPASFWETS

[4] = molecular target: T2, EGFR on EGFR and cMET co-expressed …; assay: flow cytometry, A431 cells (co-express EGFR and cMET; both arms contribute)
[5] = molecular target: T3, cMET on EGFR and cMET co-expressed …; assay: as above
Target sequence in this assay (P08581 25-1390 limits assumed): as above

[6] = molecular target: T2, EGFR on EGFR and cMET co-expressed …; assay: flow cytometry, MKN-45 cells (co-express EGFR and cMET; both arms contribute)
[7] = molecular target: T3, cMET on EGFR and cMET co-expressed …; assay: as above
Target sequence in this assay (P08581 25-1390 limits assumed): as above

[8] = molecular target: T3, cMET on EGFR and cMET co-expressed …; assay: flow cytometry, HCC-827 cells (co-express EGFR and cMET; both arms contribute)
[9] = molecular target: T2, EGFR on EGFR and cMET co-expressed …; assay: flow cytometry, NCI-N87 cells (co-express EGFR and cMET; both arms contribute)
[10] = molecular target: T3, cMET on EGFR and cMET co-expressed …; assay: as above
Target sequence in this assay (P08581 25-1390 limits assumed): as above

Human EGFR [11] = molecular target: T4, Human EGFR (human, UniProt P00533); assay: ELISA, plate coated with 100 ng/well human EGFR recombinant protein, HRP anti-human Fc, OD450
T4 construct: recombinant protein coated on the ELISA plate; also called human EGFR recombinant protein

Human cMET = molecular target: T5, Human cMET; assay: ELISA, plate coated with 100 ng/well human cMET recombinant protein, HRP anti-human Fc, OD450
T5 construct: also called human cMET recombinant protein
T5 chain: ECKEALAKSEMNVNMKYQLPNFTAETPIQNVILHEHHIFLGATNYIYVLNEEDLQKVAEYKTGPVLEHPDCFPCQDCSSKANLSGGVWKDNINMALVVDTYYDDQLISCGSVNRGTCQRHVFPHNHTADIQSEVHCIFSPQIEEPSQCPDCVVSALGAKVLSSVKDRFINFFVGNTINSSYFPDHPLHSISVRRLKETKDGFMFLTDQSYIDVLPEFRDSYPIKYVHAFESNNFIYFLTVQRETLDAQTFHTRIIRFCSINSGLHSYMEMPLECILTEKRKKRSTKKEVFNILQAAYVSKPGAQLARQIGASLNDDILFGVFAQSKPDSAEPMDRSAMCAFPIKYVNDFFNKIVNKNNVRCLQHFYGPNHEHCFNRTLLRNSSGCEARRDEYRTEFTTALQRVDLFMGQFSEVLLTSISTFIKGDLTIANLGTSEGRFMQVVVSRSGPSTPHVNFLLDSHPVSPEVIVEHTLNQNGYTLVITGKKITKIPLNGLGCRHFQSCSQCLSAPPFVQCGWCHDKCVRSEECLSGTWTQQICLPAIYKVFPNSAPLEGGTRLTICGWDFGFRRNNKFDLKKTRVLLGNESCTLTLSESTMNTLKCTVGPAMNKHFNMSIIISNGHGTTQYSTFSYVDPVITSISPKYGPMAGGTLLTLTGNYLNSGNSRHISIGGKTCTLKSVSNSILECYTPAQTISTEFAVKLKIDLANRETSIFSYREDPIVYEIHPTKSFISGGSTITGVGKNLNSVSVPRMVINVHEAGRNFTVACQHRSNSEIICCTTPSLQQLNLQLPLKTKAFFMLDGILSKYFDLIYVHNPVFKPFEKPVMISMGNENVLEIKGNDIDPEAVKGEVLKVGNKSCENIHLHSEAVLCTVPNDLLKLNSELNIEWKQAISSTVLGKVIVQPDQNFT

[12] = molecular target: T2, EGFR on EGFR and cMET co-expressed …; assay: flow cytometry, SW620 cells (named among the EGFR and cMET co-expressing lines; both arms contribute)
[13] = molecular target: T3, cMET on EGFR and cMET co-expressed …; assay: as above
human cMET-Fc = molecular target: T6, human cMET-Fc (human, UniProt P08581 25-932); assay: blocking ELISA: coated human cMET-Fc, antibody titrated, then human HGF-His (blocked ligand), anti-His-HRP
T6 construct: not shown: Fc part, not described

[14] = molecular target: T2, EGFR on EGFR and cMET co-expressed …; assay: flow cytometry on NCI-H292 cells (co-express EGFR and cMET), PE anti-human Fc; signal of the whole bispecific, not resolved by arm
[15] = molecular target: T3, cMET on EGFR and cMET co-expressed …; assay: as above
Target sequence in this assay (P08581 25-1390 limits assumed): as the sequence (P08581 25-1390 limits assumed) above

EC50 (read off the curve) (Human EGFR [1]): ~0.6 nM | EC50 (read off the curve) [2]: ~1 nM | EC50 (read off the curve) [3]: ~1 nM | EC50 (read off the curve) [4]: ~4 nM | EC50 (read off the curve) [5]: ~4 nM | EC50 (read off the curve) [6]: ~2 nM | EC50 (read off the curve) [7]: ~2 nM | EC50 (read off the curve) [8]: ~3 nM | EC50 (read off the curve) [9]: ~2 nM | EC50 (read off the curve) [10]: ~2 nM | EC50 (read off the curve) (Human EGFR [11]): ~0.4 nM | EC50 (read off the curve) (Human cMET): ~0.1 nM | EC50 (read off the curve) [12]: ~0.2 nM | EC50 (read off the curve) [13]: ~0.2 nM | IC50 (read off the curve) (human cMET-Fc): ~0.8 nM | EC50 (read off the curve) [14]: ~3 nM | EC50 (read off the curve) [15]: ~3 nM
B1: Amivantamab (bispecific antibody, human IgG1, kappa)
heavy 1: not shown
light 1: not shown
heavy 2: not shown
light 2: DIQMTQSPSSVSASVGDRVTITCRASQGISNWLAWFQHKPGKAPKLLIYAASSLLSGVPSRFSGSGSGTDFTLTISSLQPEDFATYYCQQANSFPITFGQGTRLEIKRTVAAPSVFIFPPSDEQLKSGTASVVCLLNNFYPREAKVQWKVDNALQSGNSQESVTEQDSKDSTYSLSSTLTLSKADYEKHKVYACEVTHQGLSSPVTKSFNRGEC
notes: Bispecific positive control
